Common to all, as to assay: ELISA, antibody coated, OX40-ECD.His mutant supernatant; relative to silent alanine substitutions;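 further: captured OX40 mutant protein detected with HRP-labelled anti-His antibody, absorbance read-out, scaled to the mean signal of control mutants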
In one assay the target is T1, human OX40-ECD.His T148A (human, UniProt P43489 29-214).
T1 construct: extracellular domain; not shown: C-terminal His-tag
T1 sequence (looked up): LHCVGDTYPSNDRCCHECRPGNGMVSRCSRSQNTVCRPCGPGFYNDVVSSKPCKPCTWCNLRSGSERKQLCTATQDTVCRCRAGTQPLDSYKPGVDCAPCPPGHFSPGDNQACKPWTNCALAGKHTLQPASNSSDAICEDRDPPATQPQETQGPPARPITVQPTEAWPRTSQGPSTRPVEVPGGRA

The next assay addresses T2, human OX40-ECD.His E45A (human, UniProt P43489 29-214).
T2 construct: extracellular domain; not shown: C-terminal His-tag
T2 sequence (looked up): T1 sequence (looked up) with E17A, A120T

The target in the next assay is T3, human OX40-ECD.His T105A (human, UniProt P43489 29-214).
T3 construct: extracellular domain; not shown: C-terminal His-tag
T3 sequence (looked up): T1 sequence (looked up) with T77A, A120T

A further assay addresses T4, human OX40-ECD.His V106A (human, UniProt P43489 29-214).
T4 construct: extracellular domain; not shown: C-terminal His-tag
T4 sequence (looked up): T1 sequence (looked up) with V78A, A120T

The next assay addresses T5, human OX40-ECD.His L98A (human, UniProt P43489 29-214).
T5 construct: extracellular domain; not shown: C-terminal His-tag
T5 sequence (looked up): T1 sequence (looked up) with L70A, A120T

Another assay deals with T6, human OX40-ECD.His S118A (human, UniProt P43489 29-214).
T6 construct: extracellular domain; not shown: C-terminal His-tag
T6 sequence (looked up): T1 sequence (looked up) with S90A, A120T

The next assay deals with T7, human OX40-ECD.His H132A (human, UniProt P43489 29-214).
T7 construct: extracellular domain; not shown: C-terminal His-tag
T7 sequence (looked up): T1 sequence (looked up) with H104A, A120T

The target of another assay is T8, human OX40-ECD.His A111G (human, UniProt P43489 29-214).
T8 construct: extracellular domain; not shown: C-terminal His-tag
T8 sequence (looked up): T1 sequence (looked up) with A83G, A120T

The target in another assay is T9, human OX40-ECD.His W86A (human, UniProt P43489 29-214).
T9 construct: extracellular domain; not shown: C-terminal His-tag
T9 sequence (looked up): T1 sequence (looked up) with W58A, A120T

In another assay the target is T10, human OX40-ECD.His G151A (human, UniProt P43489 29-214).
T10 construct: extracellular domain; not shown: C-terminal His-tag
T10 sequence (looked up): T1 sequence (looked up) with A120T, G123A

Where a chain is given by its changes, count along the chain named.

Method for human OX40-ECD.His A111G: (§1) After interacting with the supernatant that contains quantified OX40 mutants or human OX40-ECD.His protein, HRP conjugated anti-His antibody (1:5000, GenScript-A00612, CHN) was added as detection antibody. Absorbance was normalized according to the average of control mutants.
Method for human OX40-ECD.His E45A: as §1
Method for human OX40-ECD.His G151A: as §1
Method for human OX40-ECD.His H132A: as §1
Method for human OX40-ECD.His L98A: as §1
Method for human OX40-ECD.His S118A: as §1
Method for human OX40-ECD.His T105A: as §1
Method for human OX40-ECD.His T148A: as §1
Method for human OX40-ECD.His V106A: as §1
Method for human OX40-ECD.His W86A: as §1

B1: 1.134.9-u1-IgG1L (antibody, V domains shown)
VH: QVQLQESGPGLVKPSGTLSLTCAVSGGSISSYNWWSWVRQPPGKGLEWIGEIYHGGNTNYNPSLKSRVTMSVDNSKNQFSLKLSSVTAADTAVYYCARAPGDWGGSPYFDFWGQGTLVTVSS
VL: SSELTQDPAVSVALGQTVRITCQGDNLRTYYASWYQQKPGQAPILLIYGRNKRPSGIPDRFSGSSSGNTASLTITGAQAEDEAAYYCNSRDSSGNPVVFGGGTKLTVL
notes: fully human IgG1, lambda
With B1, the “Fold Change” value in the assay with human OX40-ECD.His T148A came to 1; with human OX40-ECD.His E45A it was 1.02; with human OX40-ECD.His T105A, 0.787; with human OX40-ECD.His V106A, 0.662; with human OX40-ECD.His L98A it was 1.01; with human OX40-ECD.His S118A, 0.969. In addition, the “Fold Change” value with human OX40-ECD.His H132A stood at 0.826; with human OX40-ECD.His A111G, 0.853; with human OX40-ECD.His W86A, 0.842; with human OX40-ECD.His G151A, 0.742.

The values are drawn from US20210171647A1 (WUXI BIOLOGICS SHANGHAI, published 2021).
